Kd data for two molecules are collected here from paper PMC7498065 (2020).

The assay addresses Complement component C5 (human, UniProt P01031). The experiment in a line: SPR. A general note: Surface plasmon resonance follows binding to a sensor surface in real time, without labels.

Complement component C5, sequence (P01031 19-673, chain 1 of 2): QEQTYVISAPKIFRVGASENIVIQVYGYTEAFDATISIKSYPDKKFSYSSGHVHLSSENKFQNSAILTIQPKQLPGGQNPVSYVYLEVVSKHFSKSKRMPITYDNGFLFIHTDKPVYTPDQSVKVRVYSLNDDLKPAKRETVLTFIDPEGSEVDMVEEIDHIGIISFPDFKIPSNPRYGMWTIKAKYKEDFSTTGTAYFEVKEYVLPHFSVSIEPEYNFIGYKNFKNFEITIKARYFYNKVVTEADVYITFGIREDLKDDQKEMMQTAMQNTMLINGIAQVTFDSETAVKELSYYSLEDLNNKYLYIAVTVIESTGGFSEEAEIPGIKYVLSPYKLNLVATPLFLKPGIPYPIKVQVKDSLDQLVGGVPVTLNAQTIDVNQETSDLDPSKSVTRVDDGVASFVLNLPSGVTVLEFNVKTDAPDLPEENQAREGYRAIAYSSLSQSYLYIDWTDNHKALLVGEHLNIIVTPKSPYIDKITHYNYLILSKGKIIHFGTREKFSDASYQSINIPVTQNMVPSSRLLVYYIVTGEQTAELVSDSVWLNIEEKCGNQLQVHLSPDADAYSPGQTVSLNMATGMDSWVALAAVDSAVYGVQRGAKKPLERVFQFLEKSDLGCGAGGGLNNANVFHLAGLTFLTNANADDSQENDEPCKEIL
Complement component C5, sequence (P01031 678-1676, chain 2 of 2): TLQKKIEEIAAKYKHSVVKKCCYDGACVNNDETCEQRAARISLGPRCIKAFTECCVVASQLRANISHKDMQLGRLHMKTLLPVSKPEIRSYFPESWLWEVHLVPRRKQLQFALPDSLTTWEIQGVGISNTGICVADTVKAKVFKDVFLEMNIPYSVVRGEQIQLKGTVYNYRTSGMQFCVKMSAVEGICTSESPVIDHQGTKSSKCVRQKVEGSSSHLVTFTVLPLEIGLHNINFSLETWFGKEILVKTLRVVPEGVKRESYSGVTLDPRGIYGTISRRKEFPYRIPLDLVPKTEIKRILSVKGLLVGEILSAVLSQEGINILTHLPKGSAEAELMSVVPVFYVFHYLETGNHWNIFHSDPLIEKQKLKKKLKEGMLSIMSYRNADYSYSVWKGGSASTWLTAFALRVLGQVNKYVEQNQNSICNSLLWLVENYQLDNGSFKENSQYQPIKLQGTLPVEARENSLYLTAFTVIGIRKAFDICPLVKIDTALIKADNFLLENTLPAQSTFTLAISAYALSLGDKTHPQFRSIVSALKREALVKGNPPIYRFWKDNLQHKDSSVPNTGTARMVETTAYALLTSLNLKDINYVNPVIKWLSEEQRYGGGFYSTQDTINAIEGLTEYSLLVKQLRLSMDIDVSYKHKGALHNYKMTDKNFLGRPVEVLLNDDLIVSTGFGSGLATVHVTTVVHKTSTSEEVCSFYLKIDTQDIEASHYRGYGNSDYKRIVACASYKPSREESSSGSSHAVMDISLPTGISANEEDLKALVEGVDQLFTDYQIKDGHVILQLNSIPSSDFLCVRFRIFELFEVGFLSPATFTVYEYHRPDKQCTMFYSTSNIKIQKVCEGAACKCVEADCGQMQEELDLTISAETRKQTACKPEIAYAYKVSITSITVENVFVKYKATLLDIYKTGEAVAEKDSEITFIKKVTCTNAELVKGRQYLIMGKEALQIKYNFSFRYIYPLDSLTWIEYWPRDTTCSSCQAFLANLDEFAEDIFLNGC

B1: PGT121-K149 fusion protein (Fab)
chain 1: QMQLQESGPGLVKPSETLSLTCSVSGASISDSYWSWIRRSPGKGLEWIGYVHKSGDTNYSPSLKSRVNLSLDTSKNQVSLSLVAATAADSGKYYCARTLHGRRIYGSENLYFQGSCPDGFSYRSWDDFCCPMVGRCLAPRNGSENLYFQGSEWFTYFYMDVWGNGTQVTVSS
chain 2: QSVLTQPPDISVAPGETARISCGEKSLGSRAVQWYQHRAGQAPSLIIYNNQDRPSGIPERFSGSPDSPFGTTATLTITSVEAGDEADYYCHIWDSRVPTKWVFGGGTTLTVL
With B1, the dissociation constant (Kd) (usually the free concentration of one partner at which half of the binding sites on the other are occupied at equilibrium, for simple one-to-one binding) came to 517 nM.

B2: PGT121-K136 fusion protein (Fab)
chain 1: QMQLQESGPGLVKPSETLSLTCSVSGASISDSYWSWIRRSPGKGLEWIGYVHKSGDTNYSPSLKSRVNLSLDTSKNQVSLSLVAATAADSGKYYCARTLHGRRIYGSENLYFQGTCPDNYREVDGCDPYDCCLTTWCTNSYCTRYIENLYFQGSEWFTYFYMDVWGNGTQVTVSS
chain 2: QSVLTQPPDISVAPGETARISCGEKSLGSRAVQWYQHRAGQAPSLIIYNNQDRPSGIPERFSGSPDSPFGTTATLTITSVEAGDEADYYCHIWDSRVPTKWVFGGGTTLTVL
The molecule B2 showed a dissociation constant Kd below 2.2 nM.
